Like-named read-outs stand apart in the source and are kept apart here.
T1: rhesus monkey (Macaca mulatta) melanocortin-5 receptor (rhesus monkey (Macaca mulatta), UniProt P33032 1-325 (human entry))
T1 chain: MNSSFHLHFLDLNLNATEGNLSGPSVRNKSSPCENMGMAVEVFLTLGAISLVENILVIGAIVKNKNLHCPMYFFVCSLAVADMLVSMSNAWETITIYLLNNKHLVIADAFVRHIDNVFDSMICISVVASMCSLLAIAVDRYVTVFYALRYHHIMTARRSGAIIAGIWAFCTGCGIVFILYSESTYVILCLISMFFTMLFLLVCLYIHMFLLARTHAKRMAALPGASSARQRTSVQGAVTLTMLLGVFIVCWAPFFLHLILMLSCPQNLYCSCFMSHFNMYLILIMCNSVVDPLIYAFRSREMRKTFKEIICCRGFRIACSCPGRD

B1: human ACTH(1-24) (peptide, UniProt P01189 138-161, looked up)
peptide: SYSMEHFRWGKPVGKKRRPVKVYP
notes: range 138-161

Legend:
[1] = target: rhesus monkey (Macaca mulatta) melanocortin-5 receptor (rhesus monkey (Macaca mulatta)); experiment: cell-based or functional assay
[2] = target: T2, human melanocortin 5 receptor (human, UniProt P33032 1-325); experiment: cell-based or functional assay
[3] = target: rhesus monkey (Macaca mulatta) melanocortin-5 receptor (rhesus monkey (Macaca mulatta)); experiment: displacement of 0.1 nM 125I-NDP-α-MSH from CHO cells stably expressing rhMC-5R
[4] = target: T2, human melanocortin 5 receptor; experiment: displacement of 0.1 nM 125I-NDP-α-MSH from CHO cells stably expressing hMC-5R
rhesus MC-5R [5] = format: binding, rhesus monkey (Macaca mulatta); settings: read-out: IC50, nM rhMC-5R
Description: (§1) The receptor plasmid was transfected into CHO dhfr- cells using lipofectamin (GIBCO). Transfected cells were selected by G418 for at least 2-3 weeks before binding and functional assays were performed. […] After incubation at room temperature for 3 hours, wells were washed 3 times by PBS, lysed in 0.5 ml of 0.05% SDS and counted by a gamma counter.
(§2) A cDNA encoding human MC-5R subcloned into the pIRES1neo expression vector (Clontech) and stably transfected into CHO cells was used as a reference for the pharmacological properties of the rhesus MC-5R. Single clones were used in all pharmacological studies as described above. The functional properties of rhMC-5R were determined by heterologous expression in CHO cells.

rhesus MC-5R [6] = format: cell-based, rhesus monkey (Macaca mulatta); settings: for EC50: read-out: EC50, nM rhMC-5R
Description: (§3) To determine the functional activation of receptors, stably transfected CHO cells were washed once with PBS without Ca^++/Mg^++, dissociated by non-enzymatic dissociation medium (Specialty Media, Inc.) at 37° C. for 10 min. Dissociated cells were resuspended in EBSS buffer containing 25 mM Hepes, 5 mM MgCl2, 0.1% BSA and 50 mM IBMX and incubated with agonist at room temperature for 45 min. The agonist activation was terminated by boiling for 4 min.
as §2

human MC-5R [7] = target: T3, human MC-5R (Homo sapiens, UniProt P33032); format: cell-based
T3 construct: expressed in transfected cells
Description: as §3
(§4) Single clones were used in all pharmacological studies as described above.
as §2

human MC-5R [8] = target: T3, human MC-5R; format: binding
Description: as §1, §4, §2

[9] = target: T1, rhesus monkey (Macaca mulatta) …; experiment: cell-based or functional assay
[10] = target: T1, rhesus monkey (Macaca mulatta) …; experiment: displacement of 0.1 nM 125I-NDP-α-MSH from CHO cells stably expressing rhMC-5R
Description: as §1, with “dhfr-cells” for “dhfr- cells”, “2–3” for “2-3”

T3 sequence (P33032 whole entry): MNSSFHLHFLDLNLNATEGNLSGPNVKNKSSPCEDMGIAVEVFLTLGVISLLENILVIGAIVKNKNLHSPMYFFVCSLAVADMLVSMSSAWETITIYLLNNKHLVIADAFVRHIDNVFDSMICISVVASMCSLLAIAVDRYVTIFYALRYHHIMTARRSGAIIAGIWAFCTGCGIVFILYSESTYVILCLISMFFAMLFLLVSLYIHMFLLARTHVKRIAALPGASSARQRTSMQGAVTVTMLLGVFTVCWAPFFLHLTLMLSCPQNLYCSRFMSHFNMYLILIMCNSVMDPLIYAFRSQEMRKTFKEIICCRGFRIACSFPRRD

Molecule	EC50, nM (cAMP synthesis in CHO cells) [1]	Maximal response (%) [1]	EC50, nM (cAMP synthesis in CHO cells) [2]	Maximal response (%) [2]	IC50 [3]	IC50 (rhesus MC-5R [5])	Maximal response (%) rhMC-5R (rhesus MC-5R [6])	EC50 (rhesus MC-5R [6])	also measured
MT-II (peptide)	0.02 nM	100%	0.8 nM	85%	5 nM				
NDP-α-MSH (peptide)	0.02 nM	100%	0.3 nM	100%	0.2 nM				IC50 [4]: 0.5 nM
MT-II [MTII]						5 ± 0.2 nM	100%	0.02 ± 0.01 nM	Agonist character at human MC-5R (in words) (human MC-5R [7]): partial agonists; Maximal response (%) hMC-5R (human MC-5R [7]): 85%
human ACTH(1-24) [ACTH1-24]						15 ± 1 nM			Maximal response (%) rhMC-5R (rhesus MC-5R [6]; cAMP response, CHO cells): 100%; EC50 (rhesus MC-5R [6]; intracellular cAMP, CHO cells, agonist 45 min at room temperature): 0.2 ± 0.1 nM; Maximal response (%) hMC-5R (human MC-5R [7]; cAMP response, CHO cells): 100%
Shu-9119 (peptide)	0.007 nM	100%	0.03 nM	100%	0.02 nM				IC50 [4]: 0.4 nM
NDP-α-MSH						0.2 ± 0.1 nM	100%	0.02 ± 0.01 nM	
α-MSH							100%	0.2 ± 0.1 nM	Apparent binding affinity for the human MC-5R (in words) (human MC-5R [8]): very low apparent binding affinity
γ2-MSH							100%		Agonist character at human MC-5R (in words) (human MC-5R [7]): partial agonists; Maximal response (%) hMC-5R (human MC-5R [7]): 80%
B1			5 nM	100%					EC50, nM (cAMP synthesis in CHO cells) [9]: 0.2 nM; Maximal response (%) [9]: 100%; IC50 [10]: 15 nM
